Measured values from US12030929B2, “Fusobacterium nucleatum amyloid-like FadA for diagnosis and treatment of Fn-mediated pathogenesis” (The Trustees of Columbia University in the City of New York, priority 2021, dated 2024).

Key:
[1] = Thioflavin-T binding assay; conditions: 10 μM Thioflavin-T; for Thioflavin-T binding in the presence of 0.1% SDS: FadA proteins 0.8 mg/ml; for Thioflavin-T binding: without SDS, 10 min
Method: (§1) FIG. 2A-2G. Pre-FadA as a key component of amyloid-like FadA. 2A. Single-letter amino acid (aa) sequence of FadA (SEQ ID NO:28). The intact pre-FadA consists of 129 aa, with the first 18-aa (top row) constitute the signal peptide. The remaining 111 aa constitute mFadA. The residues that are replaced in the mutant proteins used in this study are shown in red. 2B. Analysis of detergent resistant recombinant FadA polymers expressed in E. coli. An aliquot of 50 μg detergent-resistant pellets prepared from E. coli BL21(DE3) carrying the cloning vector pET21(b), pYWH417-6 (p_FadAc), or pYWH418 (p_mFadA) were analyzed by SDD-AGE, followed by Western blot analysis. FadA polymers were only detected in E. coli expressing FadAc, but not in mFadA or the vector control. 2C. Reactivity of recombinant FadA and its variants with anti-amyloid fibril antibody OC. A total of 10 μg each of recombinant protein mFadA, FadAc, FadA-L-9A, FadA-L14A, FadA-S71A, and FadA-L76A purified from E. coli was slot-blotted onto nitrocellulose and incubated with polyclonal OC antibody at 1:5,000 dilution. Amyloid-like recombinant Rim4 (Berchowitz et al., 2015) was used as a positive control and histone H1 was used as a negative control. Ponceau stain (pink color) is shown as a loading control. 2D. Thioflavin-T binding assay. FadA proteins at indicated concentrations were incubated with 10 μM Thioflavin-T at room temperature for 10 min. The fluorescent intensity was measured at excitation wavelength of 440 nm and emission wavelength of 500 nm. The experiment was performed in duplicate and repeated three times. *p<0.05, **p<0.01, ***p<0.001 (compared to BSA, t-test). 2E. Thioflavin-T binding assay in the presence of 0.1% SDS. FadA proteins (0.8 mg/ml) were incubated with 10 μM Thioflavin-T at room temperature for 10 min. The fluorescent intensity was measured at excitation wavelength of 440 nm and emission wavelength of 500 nm. The experiment was performed in duplicate and repeated three times. *p<0.05, **p<0.01 (compared to BSA, t-test). 2F. Western blot analysis of Fn12230 (Fn), fadA-deletion mutant US1 (ΔfadA) and spontaneous mutant lam following SDS-PAGE. A total of 400 μl of each culture grown to OD600 of 1.0 was pelleted and loaded onto 12% SDS-PAGE. FadA protein was detected using anti-FadA mAb 7H7 at 1:4,000 dilution. […] 2G. Analysis of amyloid-like FadA produced by Fn 23726 and its Δfap2 mutant. An aliquot of 50 μg detergent-resistant pellets was loaded onto each lane, followed by SDD-AGE and Western blot analysis as described above.
Thioflavin-T binding assay. Thioflavin-T assay was conducted as previously described (Tukel et al., 2009). A mixture of 50 μl of FadA proteins and 50 μl of 10 μM Thioflavin-T was added to a black 96-well plate and incubated for 10 min at room temperature. After incubation, the fluorescence intensity was determined using a SpectraMax M5 microplate reader at excitation wavelength of 440 nm and emission wavelength of 500 nm. For SDS stability test, the FadA proteins were pre-incubated in 0.1% SDS for 30 min at room temperature, followed by Thioflavin-T binding assay as described above.

[2] = tested on: Fn binding to human CRC cells DLD1; test: Cell culture attachment assay, DLD1; format: cell-based; conditions: 50 μg FadAc pre-incubated with DLD1 for 45 min
[3] = SDD-AGE and Western blot of detergent-resistant polymers; format: physicochemical; conditions: expressed in E. coli; SDD-AGE, Western blot with mAb 7H7
Method: FIG. 2A-2G. Pre-FadA as a key component of amyloid-like FadA. 2A. Single-letter amino acid (aa) sequence of FadA (SEQ ID NO:28). The intact pre-FadA consists of 129 aa, with the first 18-aa (top row) constitute the signal peptide. The remaining 111 aa constitute mFadA. The residues that are replaced in the mutant proteins used in this study are shown in red. 2B. Analysis of detergent resistant recombinant FadA polymers expressed in E. coli. An aliquot of 50 μg detergent-resistant pellets prepared from E. coli BL21(DE3) carrying the cloning vector pET21(b), pYWH417-6 (p_FadAc), or pYWH418 (p_mFadA) were analyzed by SDD-AGE, followed by Western blot analysis. FadA polymers were only detected in E. coli expressing FadAc, but not in mFadA or the vector control. 2C. Reactivity of recombinant FadA and its variants with anti-amyloid fibril antibody OC. A total of 10 μg each of recombinant protein mFadA, FadAc, FadA-L-9A, FadA-L14A, FadA-S71A, and FadA-L76A purified from E. coli was slot-blotted onto nitrocellulose and incubated with polyclonal OC antibody at 1:5,000 dilution. […] The fluorescent intensity was measured at excitation wavelength of 440 nm and emission wavelength of 500 nm. […] The fluorescent intensity was measured at excitation wavelength of 440 nm and emission wavelength of 500 nm. […] FadA protein was detected using anti-FadA mAb 7H7 at 1:4,000 dilution. […]

[4] = Circular dichroism (CD) test; format: physicochemical; conditions: wavelength range 190-250 nm; 0.2 mg/ml protein
Method: Circular dichroism (CD) test. CD was used to evaluate the secondary structure of FadA and its mutants. One hundred microliter of 0.2 mg/ml purified FadA was analyzed by Chirascan V100 Spectrometer using a 1 mm path-length fused quartz cell. The measurements are an average of three scans for each sample, captured at a scan rate of 1 sec., bandwidth and step size of 1 nm, over a wavelength range of 190-250 nm. CD spectra were recorded and analyzed with BestSel server (see www at bestsel.elte.hu/).

HCT116 xenograft tumors = conditions: shown previously (Rubinstein et al., 2013); cited from earlier work
[5] = tested on: anti-amyloid fibril antibody OC; test: Slot blot assay with anti-amyloid fibril antibody OC; format: binding; conditions: 10 μg recombinant protein; OC at 1:5,000 dilution
Method: as §1
(§2) Slot blot assay. Ten micrograms each of purified recombinant protein was slot-blotted onto nitrocellulose membrane (BioRad) and assayed for reactivity with polyclonal anti-amyloid fibril antibodies OC (α-amyloid fibril OC, Sigma-Aldrich CAT #AB2286) at 1:5,000 dilution and goat-anti-rabbit IgG (GE Healthcare) at 1:10,000 dilution, or polyclonal anti-amyloid oligomer antibody A11 (α-oligomer A11 at 1:5,000 dilution, ThermoFisher Scientific CAT #AHB0052) and goat-anti-rabbit IgG at 1:10,000 dilution, followed by detection with ECL Prime (GE Healthcare). Amyloid-like recombinant Rim4 was used as a positive control (Berchowitz et al., 2015) and histone H1 was used as a negative control. Loading was assessed by Ponceau stain (Sigma CAT #P7170).

[6] = tested on: anti-amyloid oligomer antibody A11; test: Slot blot assay with anti-amyloid oligomer antibody A11; format: binding; conditions: 10 μg recombinant protein; A11 at 1:5,000 dilution
Method: FIG. 8A-8C. 8A. SDS-PAGE analysis of recombinant FadAc and its variants. The proteins were purified as previously described (Xu et al., 2007). Approximately 2.5 μg of each purified protein were loaded onto 12% SDS-PAGE. Following electrophoresis, the gel was stained with Coomassie Blue G-250. 8B. Reactivities of recombinant FadA and its variants with anti-amyloid oligomer antibody A11. A total of 10 μg each of recombinant protein mFadA, FadAc, FadA-L-9A, FadA-L14A, FadA-S71A, and FadA-L76A purified from E. coli was slot-blotted onto nitrocellulose and incubated with polyclonal anti-amyloid oligomer antibody A11 at 1:5,000 dilution. Amyloid-like recombinant Rim4 (Berchowitz et al., 2015) was used as a positive control and histone H1 was used as a negative control. Ponceau stain (pink color) is shown as a loading control. 8C. Western blot analysis of wild-type Fn 23726 (1) and mutants Δfap2 (2) using anti-FadA mAb 7H7. The bottom panel is Coomassie blue stain for loading control.
as §2

Molecule | Thioflavin-T binding in the presence of 0.1% SDS [1] | inhibition of Fn binding to DLD1 [2] | formation of detergent-resistant polymers [3] | α helix (%) [4] | β strand (%) [4] | stimulation of xenograft tumor growth (HCT116 xenograft tumors) | reactivity with anti-amyloid fibril antibody OC [5] | reactivity with anti-amyloid oligomer antibody A11 [6] | Thioflavin-T binding [1]
FadAc: recombinant active heterogeneous complex of pre-FadA and mFadA (protein) chain 1: MKKFLLLAVLAVSASAFAATDAASLVGELQALDAEYQNLANQEEARFNEERAQADAARQALAQNEQVYNELSQRAQRLQAEANTRFYKSQYQELASKYEDALKKLEAEMEQQKAVISDFEKIQALRAGN chain 2: ATDAASLVGELQALDAEYQNLANQEEARFNEERAQADAARQALAQNEQVYNELSQRAQRLQAEANTRFYKSQYQELASKYEDALKKLEAEMEQQKAVISDFEKIQALRAGN | bound Thioflavin-T | effectively inhibited | formed detergent-resistant polymers | 47.2% | 9.6% | stimulated xenograft tumor growth | reacted | reacted | 
mFadA: cleaved mature form of FadA, 111 aa residues without the signal peptide (protein) ATDAASLVGELQALDAEYQNLANQEEARFNEERAQADAARQALAQNEQVYNELSQRAQRLQAEANTRFYKSQYQELASKYEDALKKLEAEMEQQKAVISDFEKIQALRAGN | did not bind Thioflavin-T |  | did not form polymers | 27.9% | 18.8% | not | not with the anti-fibril OC | reacted weakly | bound more Thioflavin-T than FadAc
S71A (protein) chain 1: MKKFLLLAVLAVSASAFAATDAASLVGELQALDAEYQNLANQEEARFNEERAQADAARQALAQNEQVYNELSQRAQRLQAEANTRFYKSQYQELASKYEDALKKLEAEMEQQKAVISDFEKIQALRAGN chain 2: ATDAASLVGELQALDAEYQNLANQEEARFNEERAQADAARQALAQNEQVYNELSQRAQRLQAEANTRFYKAQYQELASKYEDALKKLEAEMEQQKAVISDFEKIQALRAGN | bound Thioflavin-T |  |  | 49.1% | 8% |  | reacted | reacted | 
L14A (protein) ATDAASLVGELQAADAEYQNLANQEEARFNEERAQADAARQALAQNEQVYNELSQRAQRLQAEANTRFYKSQYQELASKYEDALKKLEAEMEQQKAVISDFEKIQALRAGN |  |  |  | 44.2% | 11.6% |  | did not react | did not react | did not bind Thioflavin-T
L76A (protein) ATDAASLVGELQALDAEYQNLANQEEARFNEERAQADAARQALAQNEQVYNELSQRAQRLQAEANTRFYKSQYQEAASKYEDALKKLEAEMEQQKAVISDFEKIQALRAGN |  |  |  |  |  |  | did not react | did not react | 
